# Data published in patent publication US20150366985A1.
# Biological target: protein A found on S. aureus (Staphylococcus aureus) (UniProt P02976)
# Assay: FACS, Alexa-488 labeled antibodies at 0.08-50 ug/mL on MRSA isolated from infected mouse kidneys; low level binding attributed by the filing to protein A
# protein A found on S. aureus (Staphylococcus aureus), sequence (P02976 37-485): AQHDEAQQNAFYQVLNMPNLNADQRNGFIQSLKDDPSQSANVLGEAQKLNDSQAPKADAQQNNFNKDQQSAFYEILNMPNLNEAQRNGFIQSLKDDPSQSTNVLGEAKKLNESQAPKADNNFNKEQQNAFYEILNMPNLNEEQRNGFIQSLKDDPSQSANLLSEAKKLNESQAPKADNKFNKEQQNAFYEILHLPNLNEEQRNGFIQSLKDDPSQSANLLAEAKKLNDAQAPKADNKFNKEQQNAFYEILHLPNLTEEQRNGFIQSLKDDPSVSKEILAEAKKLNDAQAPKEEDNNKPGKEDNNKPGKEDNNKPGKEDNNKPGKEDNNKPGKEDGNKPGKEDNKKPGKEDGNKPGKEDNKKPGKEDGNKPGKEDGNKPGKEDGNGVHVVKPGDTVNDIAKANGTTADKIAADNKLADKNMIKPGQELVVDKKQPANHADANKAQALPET
substance,measurement,value
gD antibody (negative control human IgG1 that does not recognize S. aureus),fold lower binding than the S4497 antibody (fold lower than S4497 antibody),30
